Test results from patent US20180318386A1, “PEPTIDES AND METHODS OF TREATING ENDOMETRIOSIS USING THE SAME” (BIOINCEPT, LLC, priority 2014, published 2018).

Legend:
[1] = target: Acidic leucine-rich nuclear phosphoprotein 32 family member A (human) (UniProt P39687); assay: PIF affinity resin pull-down, CD8+ cell lysate, LC-MS/MS count
Talin-1 (human) = Talin-1 (human) (UniProt Q9Y490); assay: as above
[2] = target: Actin, cytoplasmic 1 (human) (UniProt P60709); assay: as above
[3] = target: Isoform 2 of Heat shock protein HSP 90-alpha (human) (UniProt P07900); assay: as above
Calmodulin (human) [4] = target: Calmodulin (human) (UniProt P0DP23); assay: as above
[5] = target: Hepatoma-derived growth factor (human) (UniProt P51858); assay: as above
[6] = target: Nuclease-sensitive element-binding protein 1 (Fragment) (human) (UniProt P67809); assay: as above
Thrombospondin-4 (human) = Thrombospondin-4 (human) (UniProt P35443); assay: as above
[7] = target: Serum deprivation-response protein (human) (UniProt O95810); assay: as above
Thrombospondin-1 (human) = Thrombospondin-1 (human) (UniProt P07996); assay: as above
Serum albumin (human) = Serum albumin (human) (UniProt P02768); assay: as above
[8] = target: 14-3-3 protein zeta/delta (human) (UniProt P63104); assay: as above
[9] = target: Cartilage oligomeric matrix protein (human) (UniProt P49747); assay: as above
Calreticulin (human) = Calreticulin (human) (UniProt P27797); assay: as above
[10] = target: Isoform 2 of Protein SET (human) (UniProt Q01105); assay: as above
Cofilin-1 (human) = Cofilin-1 (human) (UniProt P23528); assay: as above
Nucleolin (human) = Nucleolin (human) (UniProt P19338); assay: as above
[11] = target: Tropomyosin alpha-4 chain (human) (UniProt P67936); assay: as above
[12] = target: Serine/arginine-rich-splicing factor 1 (human) (UniProt Q07955); assay: as above
Thymosin alpha-1 (human) = Thymosin alpha-1 (human) (UniProt P06454); assay: as above
Myosin-9 (human) = Myosin-9 (human) (UniProt P35579); assay: PIF affinity resin pull-down, CD14+ cell lysate, LC-MS/MS count
Calmodulin (human) [13] = target: Calmodulin (human) (UniProt P0DP23); assay: as above
Endoplasmin (human) = Endoplasmin (human) (UniProt P14625); assay: as above
Gelsolin (human) = Gelsolin (human) (UniProt P06396); assay: as above

Sequence of Thrombospondin-4 (human) (P35443 27-961 limits assumed): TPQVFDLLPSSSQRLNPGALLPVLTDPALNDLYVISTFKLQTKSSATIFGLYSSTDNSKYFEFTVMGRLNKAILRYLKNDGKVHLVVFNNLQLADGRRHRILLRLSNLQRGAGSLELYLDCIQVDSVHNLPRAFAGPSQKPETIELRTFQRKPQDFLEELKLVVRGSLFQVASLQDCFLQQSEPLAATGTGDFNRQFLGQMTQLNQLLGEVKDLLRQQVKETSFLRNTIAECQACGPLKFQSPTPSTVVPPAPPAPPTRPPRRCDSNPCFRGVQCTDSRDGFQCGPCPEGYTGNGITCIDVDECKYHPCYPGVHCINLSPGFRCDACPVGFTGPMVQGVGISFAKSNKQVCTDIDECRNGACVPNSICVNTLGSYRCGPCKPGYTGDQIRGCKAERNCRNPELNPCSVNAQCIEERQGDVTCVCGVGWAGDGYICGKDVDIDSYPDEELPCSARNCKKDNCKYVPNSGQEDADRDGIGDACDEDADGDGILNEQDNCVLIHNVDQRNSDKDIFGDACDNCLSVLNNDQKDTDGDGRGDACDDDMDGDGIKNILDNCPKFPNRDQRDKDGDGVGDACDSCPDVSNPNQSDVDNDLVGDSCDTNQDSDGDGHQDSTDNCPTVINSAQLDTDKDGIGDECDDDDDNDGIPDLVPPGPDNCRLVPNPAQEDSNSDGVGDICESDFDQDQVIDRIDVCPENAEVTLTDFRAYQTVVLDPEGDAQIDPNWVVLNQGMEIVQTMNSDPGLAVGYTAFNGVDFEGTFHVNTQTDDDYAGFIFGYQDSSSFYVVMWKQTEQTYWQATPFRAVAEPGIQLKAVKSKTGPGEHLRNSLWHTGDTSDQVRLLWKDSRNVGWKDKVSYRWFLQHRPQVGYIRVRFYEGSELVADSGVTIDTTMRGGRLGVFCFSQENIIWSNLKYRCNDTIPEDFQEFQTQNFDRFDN
Sequence of Myosin-9 (human) (P35579 2-1960 limits assumed): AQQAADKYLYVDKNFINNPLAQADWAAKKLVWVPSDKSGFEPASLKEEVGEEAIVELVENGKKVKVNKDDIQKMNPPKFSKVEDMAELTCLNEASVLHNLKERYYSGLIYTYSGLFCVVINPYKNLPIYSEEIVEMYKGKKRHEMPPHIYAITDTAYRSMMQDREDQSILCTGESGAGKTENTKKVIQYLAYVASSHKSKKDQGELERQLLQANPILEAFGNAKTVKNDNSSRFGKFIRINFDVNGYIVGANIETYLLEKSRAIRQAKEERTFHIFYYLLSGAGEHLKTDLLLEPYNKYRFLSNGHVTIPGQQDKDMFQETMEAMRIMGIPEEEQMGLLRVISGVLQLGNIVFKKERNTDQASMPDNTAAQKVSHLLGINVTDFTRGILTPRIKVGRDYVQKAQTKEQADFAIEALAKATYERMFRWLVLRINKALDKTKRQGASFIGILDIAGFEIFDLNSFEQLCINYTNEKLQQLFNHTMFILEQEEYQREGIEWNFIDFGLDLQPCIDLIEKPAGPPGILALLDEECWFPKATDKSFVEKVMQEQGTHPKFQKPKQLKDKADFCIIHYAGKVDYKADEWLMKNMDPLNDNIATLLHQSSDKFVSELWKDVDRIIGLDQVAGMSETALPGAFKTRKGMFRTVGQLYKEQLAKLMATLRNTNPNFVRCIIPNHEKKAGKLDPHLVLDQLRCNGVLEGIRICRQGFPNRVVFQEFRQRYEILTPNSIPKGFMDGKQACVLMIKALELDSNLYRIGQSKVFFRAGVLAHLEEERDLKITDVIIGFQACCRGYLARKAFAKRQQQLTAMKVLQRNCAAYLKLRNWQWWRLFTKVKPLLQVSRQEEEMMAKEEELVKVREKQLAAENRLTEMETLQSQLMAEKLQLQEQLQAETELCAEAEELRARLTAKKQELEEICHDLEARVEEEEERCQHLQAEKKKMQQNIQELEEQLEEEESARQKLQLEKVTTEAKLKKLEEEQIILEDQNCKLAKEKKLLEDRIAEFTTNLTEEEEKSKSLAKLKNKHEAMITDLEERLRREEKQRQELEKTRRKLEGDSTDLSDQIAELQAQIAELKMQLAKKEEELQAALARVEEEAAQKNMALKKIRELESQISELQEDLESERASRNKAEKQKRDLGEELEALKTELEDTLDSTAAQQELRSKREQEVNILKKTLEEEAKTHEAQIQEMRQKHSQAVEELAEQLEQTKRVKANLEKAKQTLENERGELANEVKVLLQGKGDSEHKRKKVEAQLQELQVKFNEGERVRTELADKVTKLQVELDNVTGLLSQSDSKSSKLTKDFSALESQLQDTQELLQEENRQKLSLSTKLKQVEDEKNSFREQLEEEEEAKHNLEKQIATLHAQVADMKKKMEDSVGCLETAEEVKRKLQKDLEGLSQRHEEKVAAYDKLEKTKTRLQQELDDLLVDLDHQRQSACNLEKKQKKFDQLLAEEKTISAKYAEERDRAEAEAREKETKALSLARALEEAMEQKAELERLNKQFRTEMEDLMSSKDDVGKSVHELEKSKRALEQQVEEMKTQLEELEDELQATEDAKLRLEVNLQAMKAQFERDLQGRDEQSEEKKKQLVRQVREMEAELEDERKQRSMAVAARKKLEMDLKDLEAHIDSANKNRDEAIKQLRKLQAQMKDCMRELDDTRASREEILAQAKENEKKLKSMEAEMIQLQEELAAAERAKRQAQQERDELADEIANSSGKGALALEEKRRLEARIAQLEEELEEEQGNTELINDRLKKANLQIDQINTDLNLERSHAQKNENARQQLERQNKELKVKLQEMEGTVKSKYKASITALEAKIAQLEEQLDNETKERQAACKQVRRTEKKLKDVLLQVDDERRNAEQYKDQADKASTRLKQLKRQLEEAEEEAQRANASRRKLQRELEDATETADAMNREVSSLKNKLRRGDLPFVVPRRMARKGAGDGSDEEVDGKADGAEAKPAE
Sequence of Thymosin alpha-1 (human) (P06454 other isoform, or with tags, fused parts or gaps limits assumed): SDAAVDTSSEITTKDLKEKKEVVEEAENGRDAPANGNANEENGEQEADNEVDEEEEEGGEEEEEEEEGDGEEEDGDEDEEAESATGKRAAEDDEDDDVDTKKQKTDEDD
Sequence of Endoplasmin (human) (P14625 22-803 limits assumed): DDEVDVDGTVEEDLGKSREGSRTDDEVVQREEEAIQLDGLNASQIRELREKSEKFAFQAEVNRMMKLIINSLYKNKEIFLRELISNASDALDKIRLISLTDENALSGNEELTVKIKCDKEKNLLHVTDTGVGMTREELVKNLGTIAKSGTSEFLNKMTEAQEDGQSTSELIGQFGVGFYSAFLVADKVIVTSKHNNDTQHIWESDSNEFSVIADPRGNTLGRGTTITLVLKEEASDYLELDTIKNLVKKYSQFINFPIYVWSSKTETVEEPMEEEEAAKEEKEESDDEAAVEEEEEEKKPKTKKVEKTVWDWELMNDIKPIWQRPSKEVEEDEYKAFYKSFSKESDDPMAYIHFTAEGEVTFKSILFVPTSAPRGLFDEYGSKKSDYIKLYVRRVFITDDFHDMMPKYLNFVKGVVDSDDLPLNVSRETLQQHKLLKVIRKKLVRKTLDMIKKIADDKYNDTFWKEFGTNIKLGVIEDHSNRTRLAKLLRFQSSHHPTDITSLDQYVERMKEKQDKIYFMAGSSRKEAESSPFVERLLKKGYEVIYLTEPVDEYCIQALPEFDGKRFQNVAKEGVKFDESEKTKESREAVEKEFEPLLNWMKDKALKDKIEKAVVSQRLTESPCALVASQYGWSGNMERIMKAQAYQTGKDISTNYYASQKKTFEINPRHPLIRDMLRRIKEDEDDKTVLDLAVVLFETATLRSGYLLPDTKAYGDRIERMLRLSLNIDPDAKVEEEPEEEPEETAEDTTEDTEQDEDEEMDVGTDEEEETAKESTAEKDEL
Sequence of Tropomyosin alpha-4 chain (human) (P67936 2-248 limits assumed): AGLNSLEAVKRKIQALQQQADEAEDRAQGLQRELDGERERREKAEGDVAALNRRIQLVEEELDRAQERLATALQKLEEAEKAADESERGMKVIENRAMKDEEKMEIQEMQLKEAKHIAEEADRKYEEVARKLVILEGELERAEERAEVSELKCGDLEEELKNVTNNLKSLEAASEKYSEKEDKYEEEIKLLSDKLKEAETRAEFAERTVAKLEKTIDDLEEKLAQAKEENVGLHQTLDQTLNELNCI
Sequence of Cartilage oligomeric matrix protein (human) (P49747 21-757 limits assumed): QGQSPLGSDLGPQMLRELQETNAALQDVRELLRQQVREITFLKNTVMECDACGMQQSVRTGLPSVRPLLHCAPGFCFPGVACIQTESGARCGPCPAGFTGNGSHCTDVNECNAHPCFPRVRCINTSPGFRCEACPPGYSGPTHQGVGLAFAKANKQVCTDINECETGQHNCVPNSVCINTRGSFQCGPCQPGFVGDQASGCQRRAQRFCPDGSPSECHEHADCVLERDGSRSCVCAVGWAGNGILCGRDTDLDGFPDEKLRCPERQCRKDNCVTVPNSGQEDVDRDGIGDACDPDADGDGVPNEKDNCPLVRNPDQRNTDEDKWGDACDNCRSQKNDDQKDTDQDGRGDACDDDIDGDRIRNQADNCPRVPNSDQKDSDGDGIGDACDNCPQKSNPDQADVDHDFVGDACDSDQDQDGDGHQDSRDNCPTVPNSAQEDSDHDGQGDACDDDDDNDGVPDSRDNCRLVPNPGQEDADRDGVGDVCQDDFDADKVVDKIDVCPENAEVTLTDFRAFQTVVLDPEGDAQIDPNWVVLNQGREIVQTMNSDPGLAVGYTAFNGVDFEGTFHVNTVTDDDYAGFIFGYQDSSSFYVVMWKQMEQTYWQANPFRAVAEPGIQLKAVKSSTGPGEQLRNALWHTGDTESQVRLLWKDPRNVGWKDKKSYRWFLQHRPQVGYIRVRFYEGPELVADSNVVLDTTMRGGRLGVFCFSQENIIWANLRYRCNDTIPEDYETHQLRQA
Sequence of 14-3-3 protein zeta/delta (human) (P63104 whole entry, stated change not applied): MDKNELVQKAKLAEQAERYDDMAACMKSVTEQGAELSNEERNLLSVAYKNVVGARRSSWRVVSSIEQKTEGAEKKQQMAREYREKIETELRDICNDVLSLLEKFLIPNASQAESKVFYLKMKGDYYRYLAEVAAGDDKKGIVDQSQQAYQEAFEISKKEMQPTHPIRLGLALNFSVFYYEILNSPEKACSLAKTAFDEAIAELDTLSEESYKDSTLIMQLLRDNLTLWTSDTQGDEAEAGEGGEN

PIF15 affinity resin (Cys-C6 spacer-PIF15 conjugated to agarose) (peptide)
Ave [1]: 2
Inject 1 [1]: 2
Inject 2 [1]: 2
Inject 3 [1]: 2
Ave (Talin-1 (human)): 1
Inject 1 (Talin-1 (human)): 1
Inject 2 (Talin-1 (human)): 1
Inject 3 (Talin-1 (human)): 1
Ave [2]: 3
Inject 1 [2]: 3
Inject 2 [2]: 3
Inject 3 [2]: 3
Ave [3]: 2
Inject 1 [3]: 2
Inject 2 [3]: 2
Inject 3 [3]: 2
Ave (Calmodulin (human) [4]): 2
Inject 1 (Calmodulin (human) [4]): 2
Inject 2 (Calmodulin (human) [4]): 2
Inject 3 (Calmodulin (human) [4]): 2
Ave [5]: 1
Inject 1 [5]: 1
Inject 2 [5]: 1
Inject 3 [5]: 1
Ave [6]: 1
Inject 1 [6]: 1
Inject 2 [6]: 1
Inject 3 [6]: 1
Ave (Thrombospondin-4 (human)): 3
Inject 1 (Thrombospondin-4 (human)): 3
Inject 2 (Thrombospondin-4 (human)): 3
Inject 3 (Thrombospondin-4 (human)): 3
Ave [7]: 2
Inject 1 [7]: 2
Inject 2 [7]: 2
Inject 3 [7]: 2
Ave (Thrombospondin-1 (human)): 7
Inject 1 (Thrombospondin-1 (human)): 7
Inject 2 (Thrombospondin-1 (human)): 7
Inject 3 (Thrombospondin-1 (human)): 7
Ave (Serum albumin (human)): 6
Inject 1 (Serum albumin (human)): 3
Inject 2 (Serum albumin (human)): 6
Inject 3 (Serum albumin (human)): 8
Ave [8]: 2
Inject 1 [8]: 2
Inject 2 [8]: 2
Inject 3 [8]: 2
Ave [9]: 4
Inject 1 [9]: 4
Inject 2 [9]: 4
Inject 3 [9]: 5
Ave (Calreticulin (human)): 2
Inject 1 (Calreticulin (human)): 2
Inject 2 (Calreticulin (human)): 2
Inject 3 (Calreticulin (human)): 2
Ave [10]: 1
Inject 1 [10]: 1
Inject 2 [10]: 1
Inject 3 [10]: 1
Ave (Cofilin-1 (human)): 1
Inject 1 (Cofilin-1 (human)): 1
Inject 2 (Cofilin-1 (human)): 1
Inject 3 (Cofilin-1 (human)): 1
Ave (Nucleolin (human)): 1
Inject 1 (Nucleolin (human)): 1
Inject 2 (Nucleolin (human)): 1
Inject 3 (Nucleolin (human)): 1
Ave [11]: 3
Inject 1 [11]: 3
Inject 2 [11]: 3
Inject 3 [11]: 3
Ave [12]: 1
Inject 1 [12]: 1
Inject 2 [12]: 1
Inject 3 [12]: 1
Ave (Thymosin alpha-1 (human)): 3
Inject 1 (Thymosin alpha-1 (human)): 2
Inject 2 (Thymosin alpha-1 (human)): 2
Inject 3 (Thymosin alpha-1 (human)): 4
Ave (Myosin-9 (human)): 10
Inject 1 (Myosin-9 (human)): 11
Inject 2 (Myosin-9 (human)): 9
Inject 3 (Myosin-9 (human)): 10
Ave (Calmodulin (human) [13]): 4
Inject 1 (Calmodulin (human) [13]): 6
Inject 2 (Calmodulin (human) [13]): 4
Inject 3 (Calmodulin (human) [13]): 3
Ave (Endoplasmin (human)): 1
Inject 1 (Endoplasmin (human)): 0
Inject 2 (Endoplasmin (human)): 2
Inject 3 (Endoplasmin (human)): 1
Ave (Gelsolin (human)): 2
Inject 1 (Gelsolin (human)): 3
Inject 2 (Gelsolin (human)): 1
Inject 3 (Gelsolin (human)): 1
